From the supplement of paper PMC10567573

B1: SNAP91 (parent)
chain: FAAPSPATTASPAKVDSSGVIDLF

Variants of: B1
Assay: protein stability index of a GFP-peptide fusion (GPS, HEK-293T) (PSI 1-6); higher = more stable
Conditions: c terminus: a fixed tail appended
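Note: lentivirally expressed fusions sorted by FACS into six bins by GFP to DsRed ratio, PSI derived from sequencing read proportions per bin multiplied by bin number.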

Variant	protein stability index
FAAPSPATTASPAKADSSGVIDLF	2.52
FAAPSPATTASPAKEDSSGVIDLF	3.03
FAAPSPATTASPAKMDSSGVIDLF	2.56
FAAPSPATTASPAKGDSSGVIDLF	2.41
FAAPSPATTASPAKNDSSGVIDLF	2.52
FAAPSPATTASPAKFDSSGVIDLF	1.97
FAAPSPATTASPAKWDSSGVIDLF	2.1
FAAPSPATTASPAKQDSSGVIDLF	2.04
FAAPSPATTASPAKSDSSGVIDLF	2.93
FAAPSPATTASPAKDDSSGVIDLF	2.68
FAAPSPATTASPAKYDSSGVIDLF	1.98
FAAPSPATTASPAKPDSSGVIDLF	2.65
FAAPSPATTASPAKHDSSGVIDLF	2.32
FAAPSPATTASPAKCDSSGVIDLF	1.97
FAAPSPATTFSPAKVDSSGVIDLF	1.92
FAAPSPATTLSPAKVDSSGVIDLF	2.74
FAAPSPATTMSPAKVDSSGVIDLF	2.24
FAAPSPATTWSPAKVDSSGVIDLF	2.84
FAAPSPATTQSPAKVDSSGVIDLF	2.27
FAAPSPATTDSPAKVDSSGVIDLF	2.57
FAAPSPATTCSPAKVDSSGVIDLF	1.94
FAAPSPATTISPAKVDSSGVIDLF	2.42
FAAPSPATTYSPAKVDSSGVIDLF	1.72
FAAPSPATTKSPAKVDSSGVIDLF	2.23

Variant	protein stability index
FAAPSPATTVSPAKVDSSGVIDLF	2.94
FAAPSPATTHSPAKVDSSGVIDLF	2.29
FAAPSPATTSSPAKVDSSGVIDLF	2.32
FAAPSPATTESPAKVDSSGVIDLF	2.56
FAAPSPATTGSPAKVDSSGVIDLF	1.64
FAAPSPATTNSPAKVDSSGVIDLF	2.59
FAAPSPATTRSPAKVDSSGVIDLF	1.99
FAAPSPATTTSPAKVDSSGVIDLF	2.36
FAAPSPSTTASPAKVDSSGVIDLF	2.49
FAAPSPGTTASPAKVDSSGVIDLF	2.85
FAAPSPVTTASPAKVDSSGVIDLF	2.53
FAAPSPKTTASPAKVDSSGVIDLF	2.65
FAAPSPHTTASPAKVDSSGVIDLF	2.7
FAAPSPRTTASPAKVDSSGVIDLF	2.36
FAAPSPNTTASPAKVDSSGVIDLF	2.46
FAAPSPLTTASPAKVDSSGVIDLF	1.9
FAAPSPDTTASPAKVDSSGVIDLF	2.25
FAAPSPCTTASPAKVDSSGVIDLF	1.75
FAAPSPETTASPAKVDSSGVIDLF	3.06
FAAPSPYTTASPAKVDSSGVIDLF	2.54
FAAPSPWTTASPAKVDSSGVIDLF	3
FAAPSPITTASPAKVDSSGVIDLF	2.1
FAAPSPQTTASPAKVDSSGVIDLF	2.84
FAAPSPPTTASPAKVDSSGVIDLF	2.62

Variant	protein stability index
FAAPSPFTTASPAKVDSSGVIDLF	2.65
FAAPSPMTTASPAKVDSSGVIDLF	2.23
FAAPSPTTTASPAKVDSSGVIDLF	2.11
FAAPSPATTASPAKVCSSGVIDLF	1.54
FAAPSPATTASPAKVESSGVIDLF	2.17
FAAPSPATTASPAKVHSSGVIDLF	2.82
FAAPSPATTASPAKVGSSGVIDLF	2.11
FAAPSPATTASPAKVASSGVIDLF	1.9
FAAPSPATTASPAKVFSSGVIDLF	1.68
FAAPSPATSASPAKVDSSGVIDLF	2.77
FAAPSPATVASPAKVDSSGVIDLF	2.61
FAAPSPATHASPAKVDSSGVIDLF	2.66
FAAPSPATAASPAKVDSSGVIDLF	3.02
FAAPSPATGASPAKVDSSGVIDLF	2.28
FAAPSPATIASPAKVDSSGVIDLF	2.16
FAAPSPATLASPAKVDSSGVIDLF	2.25
FAAPSPATFASPAKVDSSGVIDLF	1.63
FAAPSPATMASPAKVDSSGVIDLF	2.31
FAAPSPATQASPAKVDSSGVIDLF	2.46
FAAPSPATCASPAKVDSSGVIDLF	2.43
FAAPSPATKASPAKVDSSGVIDLF	2.91
FAAPSPATRASPAKVDSSGVIDLF	2.42
FAAPSPATEASPAKVDSSGVIDLF	2.77
FAAPSPATWASPAKVDSSGVIDLF	3.89

Variant	protein stability index
FAAPSPATYASPAKVDSSGVIDLF	1.67
FAAPSPATDASPAKVDSSGVIDLF	3.22
FAAPSPATNASPAKVDSSGVIDLF	2.58
FAAPSPATTASDAKVDSSGVIDLF	2.6
FAAPSPATTASEAKVDSSGVIDLF	2.97
FAAPSPATTASVAKVDSSGVIDLF	2.09
FAAPSPATTASIAKVDSSGVIDLF	2.08
FAAPSPATTASCAKVDSSGVIDLF	1.85
FAAPSPATTASMAKVDSSGVIDLF	2.17
FAAPSPATTASFAKVDSSGVIDLF	1.8
FAAPSPATTASSAKVDSSGVIDLF	2.32
FAAPSPATTASQAKVDSSGVIDLF	2.6
FAAPSPATTASAAKVDSSGVIDLF	2.19
FAAPSPATTASGAKVDSSGVIDLF	1.92
FAAPSPATTASNAKVDSSGVIDLF	2.6
FAAPSPATTASHAKVDSSGVIDLF	2.27
FAAPSPATTASLAKVDSSGVIDLF	2.49
FAAPSPATTASRAKVDSSGVIDLF	2.2
FAAPSPATTASTAKVDSSGVIDLF	2.15
FAAPSPATTASYAKVDSSGVIDLF	1.97
FAAPSPATTASKAKVDSSGVIDLF	1.96
FAAPSPATTASWAKVDSSGVIDLF	2.04
